Earlier results, collected in patent US20200181212A1 (priority 2014, published 2020).

System: trypsin
Settings: cited from earlier work

For asparaginase [native asparaginase], the residual activity is given as 5%.
